Source: article PMC7195491, “DIP/Dpr interactions and the evolutionary design of specificity in protein families” (Nature Communications, 2020)

What was measured:
Settings in all cases: both partners purified
[1] = target: T1, DIP-β (isoformG), extracellular region (Drosophila melanogaster); test: SPR; Biacore T100, CM4 chip; DIPs and DIP mutants immobilised by amine coupling, Dprs as analytes; 25 °C; 10 mM Tris-HCl pH 7.2, 150 mM NaCl, 1 mM EDTA, 1 mg/mL BSA, 0.01% Tween-20; duplicate responses fit globally to a 1:1 model; Rmax fixed for KDs > 100 μM, lower limit listed for KDs > 300 μM
T1 construct: DIP-β, Drosophila melanogaster, isoform G as printed, extracellular region; source: HEK293F cells, transiently transfected, purified from conditioned media (Ni-IMAC, size-exclusion chromatography)

DIP-α = target: T2, DIP-α (Drosophila melanogaster); test: SPR; Biacore T100, CM4 chip; DIPs and DIP mutants immobilised by amine coupling (760-980 RU), Dprs and Dpr mutants as analytes (three-fold dilution series, up to 81 μM, in some cases up to 27 or 9 μM); 25 °C; 10 mM Tris-HCl pH 7.2, 150 mM NaCl, 1 mM EDTA, 1 mg/mL BSA, 0.01% Tween-20; equilibrium fit, 1:1 model; for KDs > 300 μM a lower limit is listed
T2 construct: DIP-α, Drosophila melanogaster, extracellular region; The PDB entries are cited structures and may hold shorter constructs; also called blue subgroup DIP; source: HEK293F, transiently transfected, purified from conditioned media (Ni IMAC, SEC)

DIP-α K10Q = target: T3, DIP-α K10Q (Drosophila melanogaster); test: as above
T3 construct: DIP-α, Drosophila melanogaster, extracellular region; source: HEK293F, transiently transfected, purified from conditioned media (Ni IMAC, SEC)

DIP-α A11T = target: T4, DIP-α A11T (Drosophila melanogaster); test: as above
T4 construct: DIP-α, Drosophila melanogaster, extracellular region; the results' sentence speaks of 'Dpr10 positions 10 and 11'; source: HEK293F, transiently transfected, purified from conditioned media (Ni IMAC, SEC)

Row | Kd [1] | Kd (DIP-α) | fold increase of KD over wild type (DIP-α K10Q) | fold increase of KD over wild type (DIP-α A11T) | Binder
1 | > 500 µM | – | – | – | Dpr10 V31K Q29E L10G {V144K Q142E L93G}, extracellular region (domain or fragment, Limits not printed (ref. 11). Start follows PDB 6NRQ entity 1 (W3 = UniProt 50); end is the end of Ig2 in the entry's features.) WNEPYFDLTMPRNITSLVGKSAYLGCRVKHLGNKTVAWIRHRDGHILTVGTYTYTTDQRFQTSYHRDIDEWTLQIKWAQQRDAGVYECQISTEPKRSYSVNLNIVVPTATILGGPDLYVDKGSTINLTCIIKFSPEPPTHIFWYHQDKVLSEETSGGRLKFKTIKSEETKSILLIYDADLLHSGKYSCYPSNTEIASIR
2 | – | > 500 µM | – | – | Dpr10 V31K Q29E L10G (domain or fragment, Same molecule as Dm6. Limits not printed (ref. 11). Start follows PDB 6NRQ; end is the end of Ig2 in the entry's features.) WNEPYFDLTMPRNITSLVGKSAYLGCRVKHLGNKTVAWIRHRDGHILTVGTYTYTTDQRFQTSYHRDIDEWTLQIKWAQQRDAGVYECQISTEPKRSYSVNLNIVVPTATILGGPDLYVDKGSTINLTCIIKFSPEPPTHIFWYHQDKVLSEETSGGRLKFKTIKSEETKSILLIYDADLLHSGKYSCYPSNTEIASIR
3 | – | 1.5 ± 0.1 µM | ~10 fold | ~10 fold | Dpr10 (domain or fragment) YQRQSVSNNNHNNAEAKPTHAPPSHYPHGHKWNEPYFDLTMPRNITSLVGKSAYLGCRVKHLGNKTVAWIRHRDLHILTVGTYTYTTDQRFQTSYHRDIDEWTLQIKWAQQRDAGVYECQISTQPVRSYSVNLNIVDLIDAETSDIMQQYYNDDAFYIAENRVYQSSNDEFAGMFGPIQTVAVPTATILGGPDLYVDKGSTINLTCIIKFSPEPPTHIFWYHQDKVLSEETSGGRLKFKTIKSEETKSILLIYDADLLHSGKYSCYPSNTEIASIR
